Assay results reported in patent publication US20250011397A1 (HOSPITAL FOR SICK CHILDREN, published 2025).
Where a chain is given by its changes, count along the chain named. Values joined by “and” are separate entries in the source; they are usually repeats but may differ in a detail not shown here. Identical values can stand only once.

Columns and labels:
Assay in all cases: cell-based or functional assay
[1] = biological target: T1, SARS-CoV-2 Spike on HIV-based pseudotyped virus (Spike plasmid BEI NR52310) (SARS-CoV-2, UniProt P0DTC2 14-1273)
[2] = biological target: T1, SARS-CoV-2 Spike on HIV-based …; remark: listed apart in the source
[3] = biological target: Spike of authentic SARS-CoV-2/SB2-P4-PB virus (SARS-CoV-2, UniProt P0DTC2 14-1273)

B1: mAb 120 (antibody, V domains shown)
VH: QVQLVQSGAEVKKPGASVKVSCKASGYTFTSYDINWVRQAPGQGLEWMGMIDPSGGSTSYAQKFQGRVTMTRDTSTSTVYMELSSLRSEDTAVYYCAKDFGGGTRYDYWYFDLWGRGTLVTVSS
VL: EIVMTQSPATLSVSPGERATLSCRASQSVSSRYLAWYQQKPGQAPRLLIYGASTRATGIPARFSGSGSGTEFTLTISSLQSEDFAVYYCQQYYTTPRTFGQGTRLEIKR
notes: also called IgG 120
[1]
  IC50 SARS-CoV2 PsV (µg/mL), IgG: > 50 µg/mL
[2]
  Median IC50 (PsV neutralization): > 50 µg/mL and > 333 nM

B2: mAb 192 (antibody, V domains shown)
VH: QVQLVQSGAEVKKPGSSVKVSCKASGGTFSSYAISWVRQAPGQGLEWMGWINPNSGGANYAQKFQGRVTITADESTSTAYMELSSLRSEDTAVYYCSTYYYDSSGYSTDYWGQGTLVTVSS
VL: DIVMTQSPLSLPVTPGEPASISCRSSQSLLHSNGYNYLDWYLQKPGQSPQLLIYAASSLQSGVPDRFSGSGSGTDFTLKISRVEAEDVGVYYCMQALQTPYTFGQGTKLEIKR
[1]
  IC50 SARS-CoV2 PsV (µg/mL), IgG: > 50 µg/mL
[2]
  Median IC50 (PsV neutralization): > 50 µg/mL and > 333 nM

B3: mAb 180 (antibody, V domains shown)
VH: QVQLVQSGAEVKKPGSSVKVSCKASGYTFTSYAMHWVRQAPGQGLEWMGRISPRSGGTKYAQRFQGRVTITADESTSTAYMELSSLRSEDTAVYYCAREAVAGTHPQAGDFDLWGRGTLVTVSS
VL: B2 VL with M94Q, A96Y, L97Y, Q98S, T99S
[1]
  IC50 SARS-CoV2 PsV (µg/mL), IgG: > 50 µg/mL
[2]
  Median IC50 (PsV neutralization): > 50 µg/mL and > 333 nM

B4: mAb 349 (antibody, V domains shown)
VH: EVQLLESGGGLVQPGGSLRLSCAASGFTFSNYGMHWVRQAPGKGLEWVSGISSAGSITNYADSVKGRFTISRDNSKNTLYLQMNSLRAEDTAVYYCAGNHAGTTVTSEYFQHWGQGTLVTVSS
VL: DIQMTQSPSSLSASVGDRVTITCRASQSISSWLAWYQQKPGKAPKLLIYDTSNLETGVPSRFSGSGSGTDFTLTISSLQPEDFATYYCQQSYTTPWTFGQGTRLEIKR
notes: also called IgG 349
[1]
  IC50 SARS-CoV2 PsV (µg/mL), IgG: > 50 µg/mL
[2]
  Median IC50 (PsV neutralization): > 50 µg/mL and > 333 nM

B5: mAb 108 (antibody, V domains shown)
VH: QVQLVQSGAEVKKPGASVKVSCKASGYIFSRYAIHWVRQAPGQGLEWMGWMNPISGNTDYAPNFQGRVTMTRDTSTSTVYMELSSLRSEDTAVYYCAKDGSQLAYLVEYFQHWGQGTLVTVSS
VL: B4 VL with S28V, S30T, S31N, W32N, T51A, N53T, T94F, W96Y, R103K, L104V
[1]
  IC50 SARS-CoV2 PsV (µg/mL), IgG: > 50 µg/mL
[2]
  Median IC50 (PsV neutralization): > 50 µg/mL and > 333 nM

B6: mAb 324 (antibody, V domains shown)
VH: QVQLVQSGAEVKKPGASVKVSCKASGGTFNNYGISWVRQAPGQGLEWMGWMNPNSGNTGYAQKFQGRVTMTRDTSTSTVYMELSSLRSEDTAVYYCARVGDYGDYIVSPFDLWGRGTLVTVSS
VL: B4 VL with S30T, S31T, W32Y, A34N, T51A, T93S, W96P, R103K, L104V
notes: also called IgG 324
[1]
  IC50 SARS-CoV2 PsV (µg/mL), IgG: 0.78 µg/mL
[3]
  IC50 SARS-CoV2/SB2-P4-PB (µg/mL), IgG: 21 µg/mL
[2]
  Median IC50 (PsV neutralization): 0.78 µg/mL and 5.2 nM

B7: mAb 64 (antibody, V domains shown)
VH: EVQLLESGGGLVQPGGSLRLSCAASGFPFSQHGMHWVRQAPGKGLEWVSAIDRSGSYIYYADSVKGRFTISRDNSKNTLYLQMNSLRAEDTAVYYCARDTYGGKVTYFDYWGQGTLVTVSS
VL: B4 VL with S28G, W32H, T51A, S91T, T93S, R103K, L104V
notes: also called IgG 64
[1]
  IC50 SARS-CoV2 PsV (µg/mL), IgG: > 50 µg/mL
[2]
  Median IC50 (PsV neutralization): > 50 µg/mL and > 333 nM

B8: mAb 82 (antibody, V domains shown)
VH: QVQLVQSGAEVKKPGASVKVSCKASGGSFSTSAFYWVRQAPGQGLEWMGWINPYTGGTNYAQKFQGRVTMTRDTSTSTVYMELSSLRSEDTAVYYCARSRALYGSGSYFDYWGQGTLVTVSS
VL: B4 VL with S28V, S31N, W32Y, T51A, Y92F, T93S, T94P, W96P
notes: also called IgG 82
[1]
  IC50 SARS-CoV2 PsV (µg/mL), IgG: 1.6 µg/mL
[2]
  Median IC50 (PsV neutralization): 1.6 µg/mL and 11 nM

B9: mAb 160 (antibody, V domains shown)
VH: QVQLVQSGAEVKKPGASVKVSCKASGYTFTGHDMHWVRQAPGQGLEWMGIINPSGGSTSYAQKFQGRVTMTRDTSTSTVYMELSSLRSEDTAVYYCARANSLRYYYGMDVWGQGTMVTVSS
VL: B4 VL with I29V, D50A, T51A, N53S, E55Q, T56S, S91G, W96Y, R103K
notes: also called IgG 160
[1]
  IC50 SARS-CoV2 PsV (µg/mL), IgG: > 50 µg/mL
[2]
  Median IC50 (PsV neutralization): > 50 µg/mL and > 333 nM

B10: mAb 46 (antibody, V domains shown)
VH: EVQLLESGGGLVQPGRSLRLSCAASGFTFSSYAMSWVRQAPGKGLEWVSTIYSGGSTYYADSVKGRFTISRDNSKNTLYLQMNSLRAEDTAVYYCARGDSRDAFDIWGQGTMVTVSS
VL: B4 VL with T51A, T93S, W96F, Q100P, R103K, L104V, E105D
notes: also called IgG 46; antibody 46
[1]
  IC50 SARS-CoV2 PsV (µg/mL), IgG: 2.1 µg/mL
[3]
  IC50 SARS-CoV2/SB2-P4-PB (µg/mL), IgG: 19 µg/mL
[2]
  Median IC50 (PsV neutralization): 2.1 µg/mL and 14 nM

B11: mAb 254 (antibody, V domains shown)
VH: EVQLLESGGGLVQPGGSLRLSCAASGFTFSSSAMHWVRQAPGKGLEWVSAIGTGGDTYYADSVKGRFTISRDNSKNTLYLQMNSLRAEDTAVYYCAREGDGYNFYFDYWGQGTLVTVSS
VL: DIQMTQSPSSLSASVGDRVTITCRASQGISSYLAWYQQKPGKAPKLLIYDASSLQIGVPSRFSGSGSGTDFTLTISSLQPEDFATYYCLQSYSTPPWTFGQGTKVEIKR
notes: also called IgG 254
[1]
  IC50 SARS-CoV2 PsV (µg/mL), IgG: > 50 µg/mL
[2]
  Median IC50 (PsV neutralization): > 50 µg/mL and > 333 nM

B12: mAb 158 (antibody, V domains shown)
VH: QVQLVQSGAEVKKPGASVKVSCKASGYTFTGYYMHWVRQAPGQGLEWMGWINPLNGGTNFAPKFQGRVTMTRDTSTSTVYMELSSLRSEDTAVYYCARDPGGSYSNDAFDIWGQGTLVTVSS
VL: DIQMTQSPSSLSASVGDRVTITCRASQSISRYLNWYQQKPGKAPKLLIYDASNLESGVPSRFSGSGSGTDFTLTISSLQPEDFATYYCQQANSFPLTFGGGTKVDIKR
notes: also called IgG 158
[1]
  IC50 SARS-CoV2 PsV (µg/mL), IgG: > 50 µg/mL
[2]
  Median IC50 (PsV neutralization): > 50 µg/mL and > 333 nM

B13: mAb 52 (antibody, V domains shown)
VH: QVQLVQSGAEVKKPGSSVKVSCKASGYTFTSYGISWVRQAPGQGLEWMGGIIPMFGTTNYAQKFQGRVTITADKSTSTAYMELSSLRSEDTAVYYCARDRGDTIDYWGQGTLVTVSS
VL: B12 VL with S28G, R31N, Y32N, D50A, N53S, A91G, S93G, G100P
notes: also called IgG 52; antibody 52
[1]
  IC50 SARS-CoV2 PsV (µg/mL), IgG: 0.55 µg/mL
[3]
  IC50 SARS-CoV2/SB2-P4-PB (µg/mL), IgG: 6.2 µg/mL
[2]
  Median IC50 (PsV neutralization): 0.61 µg/mL and 4.1 nM

B14: MB 324 (other)
heavy: QVQLVQSGAEVKKPGASVKVSCKASGGTFNNYGISWVRQAPGQGLEWMGWMNPNSGNTGYAQKFQGRVTMTRDTSTSTVYMELSSLRSEDTAVYYCARVGDYGDYIVSPFDLWGRGTLVTVSSASTKGPSVFPLAPSSKSTSGGTAALGCLVKDYFPEPVTVSWNSGALTSGVHTFPAVLQSSGLYSLSSVVTVPSSSLGTQTYICNVNHKPSNTKVDKKVEPKSC
light: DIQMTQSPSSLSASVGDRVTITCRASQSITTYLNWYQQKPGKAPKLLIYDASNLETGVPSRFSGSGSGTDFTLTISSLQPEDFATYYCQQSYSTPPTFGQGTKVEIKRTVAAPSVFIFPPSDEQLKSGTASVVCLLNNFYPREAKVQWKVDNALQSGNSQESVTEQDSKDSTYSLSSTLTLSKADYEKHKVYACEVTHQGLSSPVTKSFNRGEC
[1]
  IC50 SARS-CoV2 PsV (µg/mL), MB: 0.0009 µg/mL
[3]
  IC50 SARS-CoV2/SB2-P4-PB (µg/mL), MB: 0.024 µg/mL
[2]
  Median IC50 (PsV neutralization): 0.0009 µg/mL and 0.39 pM

B15: mAb 236 (antibody, V domains shown)
VH: QVQLVQSGAEVKKPGASVKVSCKASGGTFTSYGINWVRQAPGQGLEWMGWMNPNSGNTGYAQKFQGRVTMTRDTSTSTVYMELSSLRSEDTAVYYCASRGIQLLPRGMDVWGQGTTVTVSS
VL: not shown
notes: also called IgG 236
[1]
  IC50 SARS-CoV2 PsV (µg/mL), IgG: 0.057 µg/mL
[3]
  IC50 SARS-CoV2/SB2-P4-PB (µg/mL), IgG: 5.5 µg/mL
[2]
  Median IC50 (PsV neutralization): 0.057 µg/mL and 0.38 nM

B16: MB 46 (other)
heavy: EVQLLESGGGLVQPGRSLRLSCAASGFTFSSYAMSWVRQAPGKGLEWVSTIYSGGSTYYADSVKGRFTISRDNSKNTLYLQMNSLRAEDTAVYYCARGDSRDAFDIWGQGTMVTVSSASTKGPSVFPLAPSSKSTSGGTAALGCLVKDYFPEPVTVSWNSGALTSGVHTFPAVLQSSGLYSLSSVVTVPSSSLGTQTYICNVNHKPSNTKVDKKVEPKSC
light: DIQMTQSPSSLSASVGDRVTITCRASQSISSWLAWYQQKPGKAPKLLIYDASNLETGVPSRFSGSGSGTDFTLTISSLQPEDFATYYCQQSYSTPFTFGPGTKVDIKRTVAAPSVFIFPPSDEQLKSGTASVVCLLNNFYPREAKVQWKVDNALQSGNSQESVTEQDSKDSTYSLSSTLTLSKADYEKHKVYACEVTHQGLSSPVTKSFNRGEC
[1]
  IC50 SARS-CoV2 PsV (µg/mL), MB: 0.0024 µg/mL
[3]
  IC50 SARS-CoV2/SB2-P4-PB (µg/mL), MB: 0.027 µg/mL
[2]
  Median IC50 (PsV neutralization): 0.0024 µg/mL and 1 pM

B17: mAb 178 (antibody, V domains shown)
VH: QVQLVQSGAEVKKPGASVKVSCKASGYTFTDYHMHWVRQAPGQGLEWMGWINPNSGGTNYAQKFQGRVTMTRDTSTSTVYMELSSLRSEDTAVYYCARDISSWYEITKFDPWGQGTLVTVSS
VL: EIVMTQSPATLSVSPGERATLSCKASQSVSGTYLAWYQQKPGQAPRLLIYGASTRATGIPARFSGSGSGTEFTLTISSLQSEDFAVYYCLQTHSYPPTFGQGTKVEIKR
notes: also called IgG 178
[1]
  IC50 SARS-CoV2 PsV (µg/mL), IgG: > 50 µg/mL
[2]
  Median IC50 (PsV neutralization): > 50 µg/mL and > 333 nM

B18: mAb 368 (antibody, V domains shown)
VH: QVQLVQSGAEVKKPGSSVKVSCKASGYTFTSYDINWVRQAPGQGLEWMGAIMPMFGTANYAQKFQGRVTITADESTSTAYMELSSLRSEDTAVYYCARGSSGYYYGWGQGTLVTVSS
VL: not shown
[1]
  IC50 SARS-CoV2 PsV (µg/mL), IgG: > 50 µg/mL
[2]
  Median IC50 (PsV neutralization): > 50 µg/mL and > 333 nM

B19: MB 82 (other)
heavy: QVQLVQSGAEVKKPGASVKVSCKASGGSFSTSAFYWVRQAPGQGLEWMGWINPYTGGTNYAQKFQGRVTMTRDTSTSTVYMELSSLRSEDTAVYYCARSRALYGSGSYFDYWGQGTLVTVSSASTKGPSVFPLAPSSKSTSGGTAALGCLVKDYFPEPVTVSWNSGALTSGVHTFPAVLQSSGLYSLSSVVTVPSSSLGTQTYICNVNHKPSNTKVDKKVEPKSC
light: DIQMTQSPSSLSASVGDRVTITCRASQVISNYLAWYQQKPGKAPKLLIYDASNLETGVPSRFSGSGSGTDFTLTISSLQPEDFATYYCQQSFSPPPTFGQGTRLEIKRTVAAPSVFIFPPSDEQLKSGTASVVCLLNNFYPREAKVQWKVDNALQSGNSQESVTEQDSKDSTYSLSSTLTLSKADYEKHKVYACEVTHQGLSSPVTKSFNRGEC
[1]
  IC50 SARS-CoV2 PsV (µg/mL), MB: 0.0022 µg/mL
[3]
  IC50 SARS-CoV2/SB2-P4-PB (µg/mL), MB: 0.21 µg/mL
[2]
  Median IC50 (PsV neutralization): 0.0022 µg/mL and 0.95 pM
